According to the supplement of paper PMC7877785:
± gives the uncertainty stated by the source.

Assay: self-splicing fitness, log relative to wild type (ln ratio); higher = more splicing; Tetrahymena group I intron in knt gene, E. coli kanamycin selection, DiMSum; sequences stand for … in CUCUCU…GGAGGGAAAAGUUAUCAGGCAUGCACCUGGUAGCUAGUCUUUAAACCAAUAGAUUGCAUCGGUUUAAAAGGCAAGACCGUCAAAUUGCGGGAAAGGGGUCAACAGCCGUUCAGUACCAAGUCUCAGGGGAAACUUUGAGAUGGCCUUGCAAAGGGUAUGGUAAUAAGCUGACGGACAUGGUCCUAACCACGCAGCCAAGUCCUAAGUCAACAGAUCUUCUGUUGAUAUGGAUGCAGUUCACAGACUAAAUGUCGGUCGGGGAAGAUGUAUUCUUCUCAUAAGAUAUAGUCGGACCUCUCCUUAAUGGGAGCUAGCGGAUGAAGUGAUGCAACACUGGAGCCGCUGGGAACUAAUUUGUAUGCGAAAGUAUAUUGAUUAGUUUUGGAGUACUCGUGGUCG
Method in brief: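 Colonies from six replicate transformations of E. coli BL21(DE3) were pooled and amplicon-sequenced on an Illumina HiSeq 2500. The library placed an intron with all eight P1ex-region nucleotides randomised inside the knt kanamycin-resistance gene on pET-22b(+), and cells grew overnight at 37°C or 30°C on LB agar with or without 25 μg/mL kanamycin (plus 100 μg/mL carbenicillin, 50 μM IPTG, 0.2% rhamnose). Fitness is the DiMSum error-weighted combination of wild-type-normalised replicate fold changes, kanamycin versus none.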

Sequence | self-splicing fitness (ln) (30 °C) | self-splicing fitness (ln) (37 °C)
GACCAGCAAUAUUACGGUGA | -0.339 ± 0.057 | -0.154 ± 0.081
CAAUAGCAAUAUUACGCGGG | -3.11 ± 0.16 | -1.75 ± 0.12
AAACAGCAAUAUUACGCAAU | -2.97 ± 0.081 | -1.4 ± 0.076
AUUUAGCAAUAUUACGCUAG | -0.961 ± 0.097 | -0.937 ± 0.12
AGGUAGCAAUAUUACGAUCG | -0.106 ± 0.015 | 0.121 ± 0.035
GGAUAGCAAUAUUACGACUC | -0.498 ± 0.16 | 0.298 ± 0.23
CCGAAGCAAUAUUACGUGAG | -1 ± 0.065 | -0.698 ± 0.084
AAACAGCAAUAUUACGGGUA | -2.58 ± 0.093 | -1.31 ± 0.072
CUUGAGCAAUAUUACGCGGU | -2.53 ± 0.33 | -2.78 ± 0.48
AAAUAGCAAUAUUACGAAUU | -1.65 ± 0.1 | -0.368 ± 0.12
UAUCAGCAAUAUUACGUGAA | -0.844 ± 0.083 | 0.371 ± 0.11
AUUGAGCAAUAUUACGAUCU | -1.28 ± 0.11 | -0.471 ± 0.14
CCAGAGCAAUAUUACGCUAU | -3.78 ± 0.43 | -2.26 ± 0.37
GGAAAGCAAUAUUACGUACU | -1.25 ± 0.082 | -0.834 ± 0.13
GACGAGCAAUAUUACGACGG | -1.82 ± 0.28 | 
UCCGAGCAAUAUUACGCGGG | -3.02 ± 0.28 | -2.78 ± 0.38
GAAUAGCAAUAUUACGUAAA | -1.94 ± 0.13 | -2.03 ± 0.14
CGCUAGCAAUAUUACGGCAA | -0.889 ± 0.099 | -0.0297 ± 0.11
UCCCAGCAAUAUUACGCCUC | -3.11 ± 0.23 | -1.98 ± 0.29

Sequence | self-splicing fitness (ln) (30 °C) | self-splicing fitness (ln) (37 °C)
UUGGAGCAAUAUUACGAGAC |  | -2.25 ± 0.5
CAUGAGCAAUAUUACGCCCG | -1.56 ± 0.18 | -0.89 ± 0.2
ACCAAGCAAUAUUACGGGCA | -0.376 ± 0.06 | -0.0824 ± 0.072
UCAGAGCAAUAUUACGUAUU | -3.31 ± 0.2 | -3.08 ± 0.29
ACAUAGCAAUAUUACGCCCC | -1.98 ± 0.39 | -0.782 ± 0.41
UUUGAGCAAUAUUACGGAUA | -3.12 ± 0.43 | -2.36 ± 0.45
UAUAAGCAAUAUUACGGAUA | -0.466 ± 0.13 | -0.208 ± 0.13
UCGAAGCAAUAUUACGUUCA | -2.59 ± 0.26 | -1.18 ± 0.17
AAGGAGCAAUAUUACGGGAA | -2.09 ± 0.2 | -3.29 ± 0.24
CAAGAGCAAUAUUACGCGCC | -3.44 ± 0.37 | -1.74 ± 0.42
ACUUAGCAAUAUUACGCCCU | -0.568 ± 0.16 | 0.0637 ± 0.28
UCUAAGCAAUAUUACGACCA | -1.73 ± 0.24 | -0.242 ± 0.19
AACAAGCAAUAUUACGAAUA | -1.97 ± 0.1 | -1.24 ± 0.11
UCACAGCAAUAUUACGCCUU | -3.82 ± 0.37 | -2.71 ± 0.41
CGCCAGCAAUAUUACGGCUU | -0.48 ± 0.07 | -0.347 ± 0.08
UGUCAGCAAUAUUACGAGAC |  | -2.91 ± 0.29
ACGGAGCAAUAUUACGUAUG | -3.6 ± 0.2 | -2.81 ± 0.32
ACUAAGCAAUAUUACGAACU | -0.447 ± 0.083 | 0.532 ± 0.1
GAGCAGCAAUAUUACGUGUU | -3.3 ± 0.33 | -2.81 ± 0.22
